Measurements from US20210388087A1 (Chugai, published 2021).
Numbering of substitutions follows the chain as printed. Names and notes keep the numbering of the source.

T1: Human CD3eg linker (human)
T1 construct: Single chain: epsilon and gamma subunits of human CD3 joined by a 29-mer linker, Flag-tag at the C-terminus; also called recombinant human CD3
T1 chain: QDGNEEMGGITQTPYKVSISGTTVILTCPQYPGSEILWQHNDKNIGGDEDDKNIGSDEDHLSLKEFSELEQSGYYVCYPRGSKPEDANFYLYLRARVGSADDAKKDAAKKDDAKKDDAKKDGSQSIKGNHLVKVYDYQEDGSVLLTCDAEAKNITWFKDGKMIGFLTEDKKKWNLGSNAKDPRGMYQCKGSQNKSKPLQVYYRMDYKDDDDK

B1: H183/L072 VH S30V (antibody, name in Kabat numbering, V domains shown)
VH: QVQLVESGGGLVQPGRSLRLSCAASGFTFVNAWMHWVRQAPGKGLEWVAQIKDKGNAYAAYYAPSVKGRFTISRDDSKNSIYLQMNSLKTEDTAVYYCHYVHYASASTVLPAFGVDAWGQGTTVTVSS
VL: DIVMTQSPLSLPVTPGEPASISCQASQELVHMNRNTYLHWYQQKPGQAPRLLIYKVSNRFPGVPDRFSGSGSGTDFTLKISRVEAEDVGVYYCAQGTSVPFTFGQGTKLEIK
B2: H183/L072 VH S62A (antibody, name in Kabat numbering, V domains shown)
VH: B1 VH with V30S, S65A
VL: B1 VL
B3: H183/L072 VH S30W (antibody, name in Kabat numbering, V domains shown)
VH: B1 VH with V30W
VL: B1 VL
B4: H183/L072 VH T28F (antibody, name in Kabat numbering, V domains shown)
VH: B1 VH with T28F, V30S
VL: B1 VL
B5: H183/L072 VH T28M (antibody, name in Kabat numbering, V domains shown)
VH: B1 VH with T28M, V30S
VL: B1 VL
B6: H183/L072 VH T28S (antibody, name in Kabat numbering, V domains shown)
VH: B1 VH with T28S, V30S
VL: B1 VL
B7: H183/L072 VH S100aA (antibody, name in Kabat numbering, V domains shown)
VH: B1 VH with V30S, S107A
VL: B1 VL
B8: H183/L072 VH T28H (antibody, name in Kabat numbering, V domains shown)
VH: B1 VH with T28H, V30S
VL: B1 VL
B9: H183/L072 VH T28P (antibody, name in Kabat numbering, V domains shown)
VH: B1 VH with T28P, V30S
VL: B1 VL
B10: H183/L072 VH S99M (antibody, name in Kabat numbering, V domains shown)
VH: B1 VH with V30S, S105M
VL: B1 VL
B11: H183/L072 VH T28G (antibody, name in Kabat numbering, V domains shown)
VH: B1 VH with T28G, V30S
VL: B1 VL
B12: H183/L072 VH T100bA (antibody, name in Kabat numbering, V domains shown)
VH: B1 VH with V30S, T108A
VL: B1 VL
B13: H183/L072 VH T28A (antibody, name in Kabat numbering, V domains shown)
VH: B1 VH with T28A, V30S
VL: B1 VL
B14: H183/L072 VH T28D (antibody, name in Kabat numbering, V domains shown)
VH: B1 VH with T28D, V30S
VL: B1 VL
B15: H183/L072 VH S100aI (antibody, name in Kabat numbering, V domains shown)
VH: B1 VH with V30S, S107I
VL: B1 VL
B16: H183/L072 VH S100aP (antibody, name in Kabat numbering, V domains shown)
VH: B1 VH with V30S, S107P
VL: B1 VL
B17: H183/L072 VH T100bL (antibody, name in Kabat numbering, V domains shown)
VH: B1 VH with V30S, T108L
VL: B1 VL
B18: H183/L072 VH S62L (antibody, name in Kabat numbering, V domains shown)
VH: B1 VH with V30S, S65L
VL: B1 VL
B19: H183/L072 VH T100bP (antibody, name in Kabat numbering, V domains shown)
VH: B1 VH with V30S, T108P
VL: B1 VL
B20: H183/L072 VH S62M (antibody, name in Kabat numbering, V domains shown)
VH: B1 VH with V30S, S65M
VL: B1 VL
B21: H183/L072 VH S100aL (antibody, name in Kabat numbering, V domains shown)
VH: B1 VH with V30S, S107L
VL: B1 VL
B22: H183/L072 VH S99A (antibody, name in Kabat numbering, V domains shown)
VH: B1 VH with V30S, S105A
VL: B1 VL
B23: H183/L072 VH T28K (antibody, name in Kabat numbering, V domains shown)
VH: B1 VH with T28K, V30S
VL: B1 VL
B24: H183/L072 VH S30Y (antibody, name in Kabat numbering, V domains shown)
VH: B1 VH with V30Y
VL: B1 VL
B25: H183/L072 VH T28W (antibody, name in Kabat numbering, V domains shown)
VH: B1 VH with T28W, V30S
VL: B1 VL
B26: H183/L072 VH S99I (antibody, name in Kabat numbering, V domains shown)
VH: B1 VH with V30S, S105I
VL: B1 VL
B27: H183/L072 VH T28R (antibody, name in Kabat numbering, V domains shown)
VH: B1 VH with T28R, V30S
VL: B1 VL
B28: H183/L072 VH T28Q (antibody, name in Kabat numbering, V domains shown)
VH: B1 VH with T28Q, V30S
VL: B1 VL
B29: H183/L072 VH T28I (antibody, name in Kabat numbering, V domains shown)
VH: B1 VH with T28I, V30S
VL: B1 VL
B30: H183/L072 VH S100aM (antibody, name in Kabat numbering, V domains shown)
VH: B1 VH with V30S, S107M
VL: B1 VL
B31: H183/L072 VH T100bM (antibody, name in Kabat numbering, V domains shown)
VH: B1 VH with V30S, T108M
VL: B1 VL
B32: H183/L072 VH T28L (antibody, name in Kabat numbering, V domains shown)
VH: B1 VH with T28L, V30S
VL: B1 VL
B33: H183/L072 VH V63A (antibody, name in Kabat numbering, V domains shown)
VH: B1 VH with V30S, V66A
VL: B1 VL
B34: H183/L072 VH S62I (antibody, name in Kabat numbering, V domains shown)
VH: B1 VH with V30S, S65I
VL: B1 VL
B35: H183/L072 VH T28V (antibody, name in Kabat numbering, V domains shown)
VH: B1 VH with T28V, V30S
VL: B1 VL
B36: H183/L072 VH T28N (antibody, name in Kabat numbering, V domains shown)
VH: B1 VH with T28N, V30S
VL: B1 VL
B37: H183/L072 VH T28E (antibody, name in Kabat numbering, V domains shown)
VH: B1 VH with T28E, V30S
VL: B1 VL
B38: H183/L072 VH S99L (antibody, name in Kabat numbering, V domains shown)
VH: B1 VH with V30S, S105L
VL: B1 VL
B39: H183/L072 VH T100bI (antibody, name in Kabat numbering, V domains shown)
VH: B1 VH with V30S, T108I
VL: B1 VL
B40: H183/L072 VH V63I (antibody, name in Kabat numbering, V domains shown)
VH: B1 VH with V30S, V66I
VL: B1 VL
B41: H183/L072 VH S62P (antibody, name in Kabat numbering, V domains shown)
VH: B1 VH with V30S, S65P
VL: B1 VL
B42: H183/L072 VH S99P (antibody, name in Kabat numbering, V domains shown)
VH: B1 VH with V30S, S105P
VL: B1 VL

Target: T1, Human CD3eg linker
Assay: Biacore SPR, vs template H183/L072

Binder	fold change of affinity [fold]
B1	0.8
B2	1.4
B3	1.3
B4	1
B5	0.8
B6	1.2
B7	0.8
B8	0.9
B9	0.7
B10	0.9
B11	0.7
B12	1.1
B13	0
B14	0.6
B15	1
B16	1.1
B17	1.1
B18	1.5
B19	1.1
B20	1.3
B21	1.1

Binder	fold change of affinity [fold]
B22	1
B23	2.7
B24	1.2
B25	0.9
B26	0.7
B27	2.9
B28	0
B29	1.1
B30	0.8
B31	1
B32	0.9
B33	1.1
B34	1.4
B35	1
B36	0.8
B37	0.6
B38	0.8
B39	1.4
B40	1.4
B41	1.3
B42	0.6
